{"source": "patent US12325863B2", "about": "“MDA-7/IL-24 secretory variants and methods of use” (Virginia Commonwealth University, priority 2018, dated 2025)", "key": {"CD11b+Gr-1+ MDSCs": {"test_system": "CD11b+Gr-1+ MDSCs", "details": "single administration 5 mg/kg or 20 mg/kg i.p., 24 hours, spleen; FIG. 33", "procedure": "24 hrs. later, splenic CD11b+Gr-1+ MDSCs were assessed by FACS.\nTwenty-four (24) hours later, splenic CD11b^+Gr-1^+ MDSCs were assessed by FACS."}, "[1]": {"experiment": "Sabutoclax and BI-97D6 in combination with MDA-7/IL-24", "details": "combined with MDA-7/IL-24; earlier observation referred to", "experimental": "To test a multi-target approach for treatment of prostate cancer bone metastases, experiments were conducted to target Mcl-1 inhibition and investigate the effects on NG-mda-7/IL-24 efficacy. […] In addition to these inhibitors, three commercially available targeted inhibitors were evaluated to determine potential synergistic effects with MDA-7/IL-24. […] Next, the therapeutic effect of MDA-7/IL-24 protein in combination with BI-97D6 was tested, in male athymic nude mice injected by the intracardiac route with human prostate cancer PC3-ML cells, resulting in bone metastases."}, "RWPE-1 cells": {"test_system": "RWPE-1 cells", "experiment": "MTT assay with Mcl-1 inhibitors, RWPE-1", "format": "cell-based, human", "details": "alone or in combination with MDA-7/IL-24, 48 hrs; FIG. 26C", "experimental": "Human (DU-145) CaP cells were treated with different targeted small molecules alone (FIG. 26A) or in combination with MDA-7/IL-24 (FIG. 26B), and after 48 hrs cell growth was measured by MTT. * indicates statistical significance vs. respective control group. Immortalized primary normal human prostate epithelial cells, RWPE-1, were treated with different combinations as indicated and MTT assays were performed at 48 hrs (FIG. 26C). Murine (RMI-BM) CaP cells were treated with different targeted small molecules alone (FIG. 26D) or in combination with MDA-7/IL-24 (FIG. 26E), and after 48 hrs. cell growth was measured by MTT.\nTo test a multi-target approach for treatment of prostate cancer bone metastases, experiments were conducted to target Mcl-1 inhibition and investigate the effects on NG-mda-7/IL-24 efficacy. Using NMR (nuclear magnetic resonance) and computational biology, two Mcl-1 inhibitors were identified (Sabutoclax and BI-97D6) and their activity was validated in immune competent mice in combination with MDA-7/IL-24. In addition to these inhibitors, three commercially available targeted inhibitors were evaluated to determine potential synergistic effects with MDA-7/IL-24. The three inhibitors were UMI-77 (showing selectivity to Mcl-1 over other members of the Bcl-2 family), Marinopyrrole A (selective inhibitor of Mcl-1), and A-1210477. […]"}, "[2]": {"test_system": "human prostate cancer PC3-ML cells", "experiment": "PC3-ML intracardiac bone metastasis model in athymic nude mice", "format": "in vivo", "details": "single agent, versus control group", "experimental": "To test a multi-target approach for treatment of prostate cancer bone metastases, experiments were conducted to target Mcl-1 inhibition and investigate the effects on NG-mda-7/IL-24 efficacy. Using NMR (nuclear magnetic resonance) and computational biology, two Mcl-1 inhibitors were identified (Sabutoclax and BI-97D6) and their activity was validated in immune competent mice in combination with MDA-7/IL-24. In addition to these inhibitors, three commercially available targeted inhibitors were evaluated to determine potential synergistic effects with MDA-7/IL-24. The three inhibitors were UMI-77 (showing selectivity to Mcl-1 over other members of the Bcl-2 family), Marinopyrrole A (selective inhibitor of Mcl-1), and A-1210477. […] Mcl-1 expression was elevated by 1.7-fold in RM1-BM (RM1-BM cells selected for enhanced metastasis to bone) as compared to RM1 cells, indicating functional relevance of Mcl-1 in this metastatic process. […] This further supported the cancer-specificity of specific Mcl-1 inhibitors. Next, the therapeutic effect of MDA-7/IL-24 protein in combination with BI-97D6 was tested, in male athymic nude mice injected by the intracardiac route with human prostate cancer PC3-ML cells, resulting in bone metastases."}, "[3]": {"test_system": "prostate cancer bone metastases (RMI-Luc cells)", "experiment": "RM1-Luc bone metastases, OT-I T cells with or without MDA-7/IL-24 protein", "format": "in vivo, C57BL/6 mice", "details": "OT-I in combination with protein i.v. 5 mg/kg body weight, 3 times; FIG. 29", "experimental": "C57BL/6 mice established with experimental bone metastases via intratibial injection of ovalbumin-positive CaP RM1-Luc cells expressing luciferase were treated with OVA-specific T cells (OT-I) alone or in combination with recombinant MDA-7/IL-24 protein i.v. (5 mg/kg body weight, 3 times). Development of bone lesions was monitored by BLI. Luciferase intensity was quantified and is presented graphically.\nC57BL/6 mice established with experimental bone metastases via intra-tibial injection of ovalbumin-positive prostate cancer RMI-Luc cells expressing luciferase were treated with OVA-specific T cells (OT-I) alone or in combination with recombinant MDA-7/IL-24 protein intravenously (5 mg/kg body weight, 3 times). Development of bone lesions was monitored by bioluminescent imaging (BLI) (FIG. 29 left panel). Luciferase intensity was quantified and is presented graphically (FIG. 29 graph)."}, "breast cancer cells": {"test_system": "breast cancer cells", "experiment": "ER stress response and surface calreticulin in breast cancer cells", "format": "cell-based, mouse", "excerpt": "FIGS. 41A-41C show example images illustrating that MDA-7/IL-24 therapy enhances immunogenicity of mouse mammary tumors. FIG. 41A: immunogenic BCa cell death induced by MDA-7/IL-24 therapy. BALB/c mice were immunized with irradiated, Ad.mda-7 (1,2) or Ad.null (3,4) infected 4T1 cells (MOI=1), challenged with live 4T1 cells. The images were taken two weeks' post-tumor challenge. […] FIG. 41C: MDA-7/IL-24 therapy triggers the surface presence of CRT, assessed by immunofluorescence staining (left) and immunoblotting analysis of plasma membrane or cytosolic fractions (right).\nImmunogenic breast cancer cell death was induced by MDA-7/IL-24 therapy. BALB/c mice were immunized with irradiated, Ad.mda-7 (mouse 1 and 2) or Ad.null (mouse 3 and 4) infected 4T1 cells (MOI=1), and then challenged with live 4T1 cells. The images were taken two weeks' post-tumor challenge."}, "[4]": {"test_system": "IFN-γ-producing CD8+ T cells", "experiment": "IFN-γ-producing CD8+ T cells in lymph nodes after i.v. protein", "format": "in vivo, C57BL/6 mice", "details": "10 μg i.v., 48 hours, lymph node cells; FIG. 31B", "experimental": "(§1) FIGS. 31A-31B show example results illustrating that MDA-7/IL-24 promotes T cell expansion and activation. FIG. 31A: CD8+ T cells were stimulated with anti-CD3/CD28 antibodies in the presence or absence of purified MDA-7/IL-24 protein (20 ng/ml). Cell proliferation was measured using ^3H-thymidine (TdR) incorporation assays. p<0.05. FIG. 31B: C57BL/6 mice were injected i.v. with MDA-7/IL-24 protein (10 μg) or PBS. 48 h later, lymph node cells were assessed for IFN-γ-producing CD8+ T cells by intracellular staining.\n(§2) In subsequent experiments, CD8^+ T cells were stimulated with anti-CD3/CD28 antibodies in the presence or absence of purified MDA-7/IL-24 protein (20 ng/ml). Cell proliferation was measured using ^3H-thymidine (TdR) incorporation assays. p<0.05. […] C57BL/6 mice were injected intravenously with MDA-7/IL-24 protein (10 μg) or PBS; 48 hours later, lymph node cells were assessed for IFN-γ-producing CD8^+ T cells by intracellular staining."}, "CD8+ T cells": {"test_system": "CD8+ T cells", "experiment": "3H-thymidine incorporation in stimulated CD8+ T cells", "format": "cell-based", "details": "anti-CD3/CD28 stimulation, 20 ng/ml, p<0.05; FIG. 31A", "experimental": "as §1, §2"}}, "data": [{"molecule": "Cc1cc2c(C(=O)NC[C@H](C)c3ccccc3)c(O)c(O)cc2c(O)c1-c1c(C)cc2c(C(=O)NC[C@H](C)c3ccccc3)c(O)c(O)cc2c1O", "note": "[BI-97C1, Sabutoclax]", "values": [{"measurement": "frequency of CD11b+Gr-1+ MDSCs", "setting": "CD11b+Gr-1+ MDSCs", "value": "substantially reduced the frequency of CD11b^+Gr-1^+ MDSCs"}, {"measurement": "antitumor synergy", "setting": "[1]", "value": "antitumor synergy"}]}, {"molecule": "O=C(c1ccccc1O)c1[nH]c(Cl)c(Cl)c1-n1c(C(=O)c2ccccc2O)cc(Cl)c1Cl", "note": "[Marinopyrrole A]", "values": [{"measurement": "anti-proliferative effects (MTT)", "setting": "RWPE-1 cells", "value": "anti-proliferative effects"}]}, {"molecule": "MDA-7/IL-24: Melanoma differentiation associated gene-7/Interleukin-24, secreted protein of the IL-10 family (protein) QEFHFGPCQVKGVVPQKLWEAFWAVKDTMQAQDNITSARLLQQEVLQNVSDAESCYLVHTLLEFYLKTVFKNYHNRTVEVRTLKSFSTLANNFVLIVSQLQPSQENEMFSIRDSAHRRFLLFRRAFKQLDVEAALTKALGEVDILLTWMQKFYKL", "values": [{"measurement": "bone metastases", "setting": "[2]", "value": "statistically significant inhibition of bone metastases"}, {"measurement": "therapeutic potency of ATT on bone metastases (BLI)", "setting": "[3]", "value": "significantly enhanced the therapeutic potency of ATT"}, {"measurement": "surface calreticulin (immunofluorescence, immunoblotting)", "setting": "breast cancer cells; FIG. 41C", "value": "triggers the surface presence of calreticulin (CRT)"}, {"measurement": "ER stress response", "setting": "breast cancer cells; GRP78/BiP, GRP170, FIG. 41B", "value": "upregulation of ER-resident chaperones"}, {"measurement": "frequency of IFN-γ-expressing CD8+ T cells", "setting": "[4]", "value": "increased the frequency of IFN-γ-expressing CD8^+ T cells"}, {"measurement": "T cell proliferation (3H-thymidine incorporation)", "setting": "CD8+ T cells", "value": "significantly enhanced the proliferation of T cells"}]}]}
